# From paper PMC4141822
# T1: Csa5 (Csa5b) WT (Thermoproteus tenax Kra1) (UniProt G4RJZ0)
# T1 sequence: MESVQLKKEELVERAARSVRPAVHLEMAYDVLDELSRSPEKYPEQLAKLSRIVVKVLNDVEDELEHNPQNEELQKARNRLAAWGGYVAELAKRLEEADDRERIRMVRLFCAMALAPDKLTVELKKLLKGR
# T2: Csa5 (Csa5b) WT (Thermoproteus tenax Kra1, UniProt G4RJZ0 1-130)
# T2 sequence: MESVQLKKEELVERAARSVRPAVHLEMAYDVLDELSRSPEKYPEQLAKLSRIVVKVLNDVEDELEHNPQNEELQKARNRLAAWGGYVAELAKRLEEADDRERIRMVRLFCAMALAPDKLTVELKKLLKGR
# T3: Thermoproteus tenax Cas7 (Thermoproteus tenax, UniProt G4RJZ1 1-329)
# T3 sequence (looked up): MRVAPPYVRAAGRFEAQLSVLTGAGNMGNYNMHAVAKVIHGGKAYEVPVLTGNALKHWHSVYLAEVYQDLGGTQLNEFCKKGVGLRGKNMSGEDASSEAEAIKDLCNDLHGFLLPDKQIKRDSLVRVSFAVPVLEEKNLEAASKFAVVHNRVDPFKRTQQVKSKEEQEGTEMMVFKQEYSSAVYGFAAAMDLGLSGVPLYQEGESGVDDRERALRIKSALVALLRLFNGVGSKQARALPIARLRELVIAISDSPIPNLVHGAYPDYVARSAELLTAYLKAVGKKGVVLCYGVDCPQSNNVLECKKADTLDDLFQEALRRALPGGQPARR
# T4: Thermoproteus tenax Cas5a (Thermoproteus tenax, UniProt G4RJZ2 1-226)
# T4 sequence (looked up): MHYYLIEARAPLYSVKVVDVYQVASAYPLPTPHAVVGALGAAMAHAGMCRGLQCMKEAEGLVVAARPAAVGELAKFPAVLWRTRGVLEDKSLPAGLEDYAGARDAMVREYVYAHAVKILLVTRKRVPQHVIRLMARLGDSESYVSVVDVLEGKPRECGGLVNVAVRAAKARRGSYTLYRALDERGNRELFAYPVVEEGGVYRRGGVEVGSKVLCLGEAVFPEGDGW
# T5: Thermoproteus tenax Cas8a2 (Thermoproteus tenax, UniProt G4RJZ5 1-361)
# T5 construct: also called large subunit
# T5 sequence (looked up): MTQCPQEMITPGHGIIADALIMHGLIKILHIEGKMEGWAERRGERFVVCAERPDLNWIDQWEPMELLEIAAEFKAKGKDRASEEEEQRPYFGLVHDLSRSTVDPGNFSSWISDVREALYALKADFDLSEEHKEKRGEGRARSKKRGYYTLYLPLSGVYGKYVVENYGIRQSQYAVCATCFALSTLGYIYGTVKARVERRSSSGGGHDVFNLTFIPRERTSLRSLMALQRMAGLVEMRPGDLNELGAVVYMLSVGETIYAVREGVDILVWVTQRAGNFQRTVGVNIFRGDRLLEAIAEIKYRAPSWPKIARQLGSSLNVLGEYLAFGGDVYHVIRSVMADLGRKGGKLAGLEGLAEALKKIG
# Assays:
# [1] = biological target: T1, Csa5 (Csa5b) WT (Thermoproteus tenax Kra1); assay: EMSA; conditions: EMSA: 100 mM HEPES/KOH pH 7, 10 mM beta-mercaptoethanol, 37 C 30 min, 6% native TBE PAGE; MST: 50 mM Tris-HCl pH 7.4, 150 mM NaCl, 0.05% Tween-20, 37 C 30 min …
# Csa5 (Csa5b) WT [2] = biological target: T2, Csa5 (Csa5b) WT; assay: EMSA; 15 uM Csa5; EMSA: 100 mM HEPES/KOH pH 7, 10 mM beta-mercaptoethanol, 37 C 30 min, 6% native TBE PAGE; MST: 50 mM Tris-HCl pH 7.4, 150 mM NaCl, 0.05% Tween-20, 37 C 30 min; conditions: protein: recombinant; tags: none stated (pET24a); label: 5' 32P
# Csa5 (Csa5b) WT [3] = biological target: T2, Csa5 (Csa5b) WT; assay: EMSA; duplex formed with 1000x cold crRNA; 15 uM Csa5; EMSA: 100 mM HEPES/KOH pH 7, 10 mM beta-mercaptoethanol, 37 C 30 min, 6% native TBE PAGE; MST: 50 mM Tris-HCl pH 7.4, 150 mM NaCl, 0.05% Tween-20, 37 C 30 min; conditions: protein: recombinant; tags: none stated (pET24a); label: 5' 32P on DNA
# Thermoproteus tenax Cas7 = biological target: T3, Thermoproteus tenax Cas7; assay: co-refolding reconstitution, soluble fraction by SDS-PAGE; 300 µg of each GdmCl-solubilized Cas5a, Cas3′, Cas3″ and Cas8a2 mixed with purified Cas7 and a Csa5 variant, co-refolded by stepwise dialysis into GdmCl-free buffer; aggregates precipitated (14,000×g, 30 min, 4°C), soluble proteins concentrated and analysed by SDS-PAGE; conditions: both partners purified
# [4] = biological target: T4, Thermoproteus tenax Cas5a; assay: as above; conditions: both partners purified
# [5] = biological target: T5, Thermoproteus tenax Cas8a2; assay: as above; conditions: both partners purified
# Csa5 (Csa5b) WT [6] = biological target: T2, Csa5 (Csa5b) WT; assay: EMSA; 3.75-60 uM Csa5; EMSA: 100 mM HEPES/KOH pH 7, 10 mM beta-mercaptoethanol, 37 C 30 min, 6% native TBE PAGE; MST: 50 mM Tris-HCl pH 7.4, 150 mM NaCl, 0.05% Tween-20, 37 C 30 min; conditions: protein: recombinant; tags: none stated (pET24a); label: 5' 32P
# Csa5 (Csa5b) WT [7] = biological target: T2, Csa5 (Csa5b) WT; assay: EMSA; 7-fold weaker than NT DNA; EMSA: 100 mM HEPES/KOH pH 7, 10 mM beta-mercaptoethanol, 37 C 30 min, 6% native TBE PAGE; MST: 50 mM Tris-HCl pH 7.4, 150 mM NaCl, 0.05% Tween-20, 37 C 30 min; conditions: protein: recombinant; tags: none stated (pET24a); label: 5' 32P
# Csa5 (Csa5b) WT [8] = biological target: T2, Csa5 (Csa5b) WT; assay: EMSA; no difference from GAG-PAM; EMSA: 100 mM HEPES/KOH pH 7, 10 mM beta-mercaptoethanol, 37 C 30 min, 6% native TBE PAGE; MST: 50 mM Tris-HCl pH 7.4, 150 mM NaCl, 0.05% Tween-20, 37 C 30 min; conditions: protein: recombinant; tags: none stated (pET24a); label: 5' 32P
# Csa5 (Csa5b) WT [9] = biological target: T2, Csa5 (Csa5b) WT; assay: MST; Tris pH 7.4, 150 mM NaCl; no metal; EMSA: 100 mM HEPES/KOH pH 7, 10 mM beta-mercaptoethanol, 37 C 30 min, 6% native TBE PAGE; MST: 50 mM Tris-HCl pH 7.4, 150 mM NaCl, 0.05% Tween-20, 37 C 30 min; conditions: protein: recombinant; tags: none stated (pET24a); label: 5' Cy3
# Csa5 (Csa5b) WT [10] = biological target: T2, Csa5 (Csa5b) WT; assay: EMSA; no difference from AGG-PAM; EMSA: 100 mM HEPES/KOH pH 7, 10 mM beta-mercaptoethanol, 37 C 30 min, 6% native TBE PAGE; MST: 50 mM Tris-HCl pH 7.4, 150 mM NaCl, 0.05% Tween-20, 37 C 30 min; conditions: protein: recombinant; tags: none stated (pET24a); label: 5' 32P
molecule,measurement,setting,value
GTCGACTAATACGACTCACTATAGGCCTATCGCTTGTCCAACCGGGCTCCTCTATATGTCGTCATTAGCTTACCGCTGAGCAATAACTAGCAAGCTT (double strand) [NT/T dsDNA 97 bp],binding signal (fold weaker than ssDNA),[1],14
target (T) ssDNA 97 nt (ssDNA) DNA: AAGCTTGCTAGTTATTGCTCAGCGGTAAGCTAATGACGACATATAGAGGAGCCCGGTTGGACAAGCGATAGGCCTATAGTGAGTCGTATTAGTCGAC,binding result,Csa5 (Csa5b) WT [2],binds
T DNA:crRNA hybrid (DNA:RNA) DNA: AAGCTTGCTAGTTATTGCTCAGCGGTAAGCTAATGACGACATATAGAGGAGCCCGGTTGGACAAGCGATAGGCCTATAGTGAGTCGTATTAGTCGAC RNA: AUUGAAAGAUCGCUUGUCCAACCGGGCUCCUCUAUAUGUCGUCAUUAGCUUAGA,binding result,Csa5 (Csa5b) WT [3],no binding
"Thermoproteus tenax Csa5 wild type (TTX_1250) (natural protein, Thermoproteus tenax Kra1, UniProt G4RJZ0 1-130, looked up, Csa5 (Csa5b), small subunit of the type I-A Cascade, Thermoproteus tenax Kra1, locus TTX_1250; theoretical mass of the monomer 15.04 kDa; no tag is named and the purification uses none; also called Csa5 WT; Csa5b; source: E. coli Rosetta(DE3)pLysS, purified (heat precipitation 90°C, Blue-Sepharose, MonoQ)) MESVQLKKEELVERAARSVRPAVHLEMAYDVLDELSRSPEKYPEQLAKLSRIVVKVLNDVEDELEHNPQNEELQKARNRLAAWGGYVAELAKRLEEADDRERIRMVRLFCAMALAPDKLTVELKKLLKGR",binding result,Thermoproteus tenax Cas7,binds
same,binding result,[4],binds
same,binding result,[5],binds
"Thermoproteus tenax Csa5 D33A (natural protein, Thermoproteus tenax Kra1, UniProt G4RJZ0 1-130, looked up, Made by site-directed mutagenesis of the pET24a csa5 construct; source: E. coli Rosetta(DE3)pLysS, purified (heat precipitation 90°C, Blue-Sepharose, MonoQ)) MESVQLKKEELVERAARSVRPAVHLEMAYDVLAELSRSPEKYPEQLAKLSRIVVKVLNDVEDELEHNPQNEELQKARNRLAAWGGYVAELAKRLEEADDRERIRMVRLFCAMALAPDKLTVELKKLLKGR",binding result,Thermoproteus tenax Cas7,binds
same,binding result,[4],binds
same,binding result,[5],binds
"Thermoproteus tenax Csa5 Y29A (natural protein, Thermoproteus tenax Kra1, UniProt G4RJZ0 1-130, looked up, Made by site-directed mutagenesis of the pET24a csa5 construct; source: E. coli Rosetta(DE3)pLysS, purified (heat precipitation 90°C, Blue-Sepharose, MonoQ)) MESVQLKKEELVERAARSVRPAVHLEMAADVLDELSRSPEKYPEQLAKLSRIVVKVLNDVEDELEHNPQNEELQKARNRLAAWGGYVAELAKRLEEADDRERIRMVRLFCAMALAPDKLTVELKKLLKGR",binding result,Thermoproteus tenax Cas7,binds
same,binding result,[4],binds
same,binding result,[5],binds
"Thermoproteus tenax Csa5 D30A/D33A (natural protein, Thermoproteus tenax Kra1, UniProt G4RJZ0 1-130, looked up, Made by site-directed mutagenesis of the pET24a csa5 construct; source: E. coli Rosetta(DE3)pLysS, purified (heat precipitation 90°C, Blue-Sepharose, MonoQ)) MESVQLKKEELVERAARSVRPAVHLEMAYAVLAELSRSPEKYPEQLAKLSRIVVKVLNDVEDELEHNPQNEELQKARNRLAAWGGYVAELAKRLEEADDRERIRMVRLFCAMALAPDKLTVELKKLLKGR",binding result,Thermoproteus tenax Cas7,binds
same,binding result,[4],binds
same,binding result,[5],binds
CCA-PAM poly-PAM ssDNA (ssDNA) DNA: AAAACCAAAACCAAAACCAAAACCAAAACCAAAACCAAAACCAAAACCAAAACCAAAACCAAAACCAAAACCAAAACCAAAACCAAAACCAAAACCAAAA,binding result,Csa5 (Csa5b) WT [6],binds
ATCGCTTGTCCAACCGGGCTCCTCTATATGTCGTCATT (ssDNA) [p2 (38 nt)],binding signal,Csa5 (Csa5b) WT [7],12 % bound at 15 uM
AGG-PAM poly-PAM ssDNA (ssDNA) DNA: AAAAGGAAAAGGAAAAGGAAAAGGAAAAGGAAAAGGAAAAGGAAAAGGAAAAGGAAAAGGAAAAGGAAAAGGAAAAGGAAAAGGAAAAGGAAAAGGAAAA,binding result,Csa5 (Csa5b) WT [8],binds
Cy3-non-target ssDNA 80 nt (ssDNA) DNA: CGACTCACTATAGGCCTATCGCTTGTCCAACCGGGCTCCTCTATATGTCGTCATTAGCTTACCGCTGAGCAATAACTAGC,Kd,Csa5 (Csa5b) WT [9],6.49 µM
CGTCATTAGCTTACCGCTGAGCAATAACTAGCAAGCTT (ssDNA) [p3 (38 nt)],binding signal,Csa5 (Csa5b) WT [7],12 % bound at 15 uM
CAC-PAM disrupted poly-PAM ssDNA (ssDNA) DNA: AAAACACAAACACAAACACAAACACAAACACAAACACAAACACAAACACAAACACAAACACAAACACAAACACAAACACAAACACAAACACAAACACAAA,binding result,Csa5 (Csa5b) WT [6],binds
GTCGACTAATACGACTCACTATAGGCCTATCGCTTGTC (ssDNA) [p1 (38 nt)],binding signal,Csa5 (Csa5b) WT [7],12 % bound at 15 uM
GAG-PAM disrupted poly-PAM ssDNA (ssDNA) DNA: AAAAGAGAAAGAGAAAGAGAAAGAGAAAGAGAAAGAGAAAGAGAAAGAGAAAGAGAAAGAGAAAGAGAAAGAGAAAGAGAAAGAGAAAGAGAAAGAGAAA,binding result,Csa5 (Csa5b) WT [10],binds
